Reference: patent US4944948A, “EGF/Liposome gel composition and method” (Liposome Technology, Inc., priority 1989, dated 1990)
Like-named read-outs stand apart in the source and are kept apart here.

Tests used:
[1] = 37° C., 25% human plasma/saline, 0.08 μm filter
Experimental: Liposome formulations were evaluated in vitro by release rates of 125 I-rh-EGF into the receiver compartments of percutaneous absorption cells that were continuously perfused with 25% pooled human plasma/saline.
A conventional two-chamber absorption cell, using a bath temperature of 37° C., was employed (Bronaugh). A 25 mm, 0.08 μm diameter Nuclepore (Pleasanton, Calif.) polycarbonate filter was used to separate the donor from the flow-through acceptor compartment. […] The ^125 I-rh-EGF preparation was mixed with an equal quantity of 25% pooled human plasma/isotonic saline and 200 μl aliquots were immediately applied to the donor compartments. Parafilm was used to occlude the donor compartment and prevent evaporative loss. The perfusate was collected by fraction collector into scintillation vials and mounted in a Packard TriCarg 20000. rh-EGF flux was calculated from the specific activity (DPM per μg peptide). Clearance rate half-lives were determined for individual percutaneous absorption cells as described below.
In this single phase system, it is possible to determine the concentration of peptide remaining in the donor compartment by subtracting cumulative peptide in the measured in the receiver compartment from total peptide applied to the donor compartment. […]

[2] = for % Lost (of total dose administered): from first order rate constants
Experimental: The amount of radioactivity remaining in the injected eye was measured for up to 96 hours after injection (until at least 90% of the initial radioactivity had disappeared). An external NaI crystal detector/ratemeter (The Nucleus Model L) was placed directly over the eye and radioactivity measured for 2 minutes and recorded on a chart recorder. […] The mean chart deflection during each recording was taken as the measurement at that time point. The first reading was taken immediately after injection ("zero time") and subsequent measurements were converted to a percentage of this initial amount.
Individual radioactivity versus time data were recorded for each animal, and the mean values for each animal group (N=4-6) were calculated.
Each plot was used to calculate first order rate constants for EGF disappearance from the eye for each formulation by a non linear least squares fitting method (RSTRIP, MicroMath, Salt Lake City, Utah).
At =A0 * e ^-kt or 1n(At)=1n (A0)-kt
where k=0.693 / t1/2, the amount of EGF lost from the eye during any day can be calculated.

[3] = rabbit, subconjunctival injection

**Q.** For CC[C@H](C)[C@@H]1NC(=O)[C@H](Cc2ccc(O)cc2)NC(=O)CNC(=O)[C@H](C(C)C)NC(=O)[C@H](C(C)C)NC(=O)[C@@H](NC(=O)[C@H](CC(N)=O)NC(=O)[C@@H]2CSSC[C@@H]3NC(=O)[C@H](Cc4ccc(O)cc4)NC(=O)CNC(=O)[C@H](CC(=O)O)NC(=O)[C@H](Cc4c[nH]cn4)NC(=O)[C@H](CO)NC(=O)[C@H](CC(C)C)NC(=O)[C@@H]4CCCN4C(=O)[C@@H](NC(=O)[C@H](CCC(=O)O)NC(=O)[C@H](CO)NC(=O)[C@H](CC(=O)O)NC(=O)[C@H](CO)NC(=O)[C@@H](N)CC(N)=O)CSSC[C@H](NC(=O)[C@H](C(C)C)NC(=O)CNC(=O)[C@H](CC(=O)O)NC(=O)[C@H](Cc4c[nH]cn4)NC(=O)[C@H](CC(C)C)NC3=O)C(=O)N[C@@H](CCSC)C(=O)N[C@@H](Cc3ccc(O)cc3)C(=O)N[C@@H]([C@@H](C)CC)C(=O)N[C@@H](CCC(=O)O)C(=O)N[C@@H](C)C(=O)N[C@@H](CC(C)C)C(=O)N[C@@H](CC(=O)O)C(=O)N[C@@H](CCCCN)C(=O)N[C@@H](Cc3ccc(O)cc3)C(=O)N[C@@H](C)C(=O)N2)CSSC[C@@H](C(=O)N[C@@H](CCC(N)=O)C(=O)N[C@@H](Cc2ccc(O)cc2)C(=O)N[C@@H](CCCNC(=N)N)C(=O)N[C@@H](CC(=O)O)C(=O)N[C@@H](CC(C)C)C(=O)N[C@@H](CCCCN)C(=O)N[C@@H](Cc2c[nH]c3ccccc23)C(=O)N[C@@H](Cc2c[nH]c3ccccc23)C(=O)N[C@@H](CCC(=O)O)C(=O)N[C@@H](CC(C)C)C(=O)N[C@@H](CCCNC(=N)N)C(=O)O)NC(=O)[C@H](CCCNC(=N)N)NC(=O)[C@H](CCC(=O)O)NC(=O)CNC1=O [Free EGF, Epidermal Growth Factor], which “Half-life of EGF release in vitro (slow phase for liposomes)” value [1] is on record?
**A.** about 1.8 hours

**Q.** And the “% Lost (of total dose administered)” value ([2]; Day 1, includes initial burst)?
**A.** 100%

**Q.** What about the “% Lost (of total dose administered)” value ([2]; Day 2) of the same compound?
**A.** 0%

**Q.** And the “% Lost (of total dose administered)” value ([2]; Day 3)?
**A.** 0%

**Q.** What about the “% Lost (of total dose administered)” value ([2]; Day 4) of the same compound?
**A.** 0%

**Q.** What about the “% Lost (of total dose administered)” value ([2]; Day 5) of the same compound?
**A.** 0%

**Q.** And the “% Lost (of total dose administered)” value ([2]; Day 6)?
**A.** 0%

**Q.** And the “% Lost (of total dose administered)” value ([2]; Day 7)?
**A.** 0%

**Q.** What about the “Dose remaining in the eye” value ([2]; after 3 hours) of the same compound?
**A.** Less than 15%

**Q.** And the “EGF available at the conjunctival site” value ([2]; one day after administration)?
**A.** substantially no EGF was available

**Q.** What about the “Half life of EGF retention in the eye” value [2, 3] of the same compound?
**A.** 1 h

**Q.** What about the “Half-life of EGF disappearance from the eye” value [2, 3] of the same compound?
**A.** 1.0 h

**Q.** And the “Half life of EGF retention in the eye” value ([2]; rabbit, subconjunctival injection, listed as unencapsulated EGF)?
**A.** 1.0 h

**Q.** What about the “Rate constant of EGF disappearance from the eye” value ([2]; rabbit, subconjunctival, fit of loglinear portion after initial burst) of the same compound?
**A.** 0.69 h⁻¹
